Source: US5198419A, “Formulated medicines for enhancing the efficacy of beta-lactam antibiotics in prophylaxis and treatment against infectious disease due to pathogenic bacteria” (Immuno Japan Inc., priority 1989, dated 1993)

Test system: Klebsiella pneumoniae strain 3K25
Test: Example 3: experimental infection in mice, cefaclor with or without hololactoferrin
Assay type: in vivo, strain ICR
Details: hololactoferrin alone 0.4 mg/mouse p.o.
Description: For ED50 values, a range of amounts of antibiotics is given in the examples (e.g., penicillin G: 0.4, 0.2, 0.1, 0.05 mg/mouse). To calculate the ED50, groups of mice in the monotherapy groups and groups of mice in the combined therapy groups received the indicated amount of antibiotic (e.g., one group received 0.4 mg/mouse of penicillin G, one group received 0.2 mg/mouse of penicillin G, one group received 0.1 mg/mouse of penicillin G, one group received 0.05 mg/mouse of penicillin G).
Sixty male mice, strain ICR, five weeks of age, weighing 21.3±1.5 g (mean±the standard deviation) were randomly allocated into ten groups (n=6), and intraperitoneally injected with Klebsiella pneumoniae strain 3K25, 1×10^6 CFU/mouse. One hour after the injection, the first group was orally given 0.2 ml of physiological saline, the second group orally given hololactoferrin (100% ferric ion saturated lactoferrin, 0.4 mg/mouse), the third through the sixth groups orally given cefaclor (2.0, 1.0, 0.5 and 0.25 mg/mouse each) in 0.2 ml of saline, and the seventh through the tenth groups orally given cefaclor (2.0, 1.0, 0.5 and 0.25 mg/mouse each) and hololactoferrin (100% iron saturated lactoferrin, 0.4 mg/mouse) in 0.2 ml of saline. The mice were fed ad libitum and observed for one week under the same conditions as described in Example 1.

B1: hololactoferrin: 100% ferric ion saturated lactoferrin (protein, UniProt P24627 20-708, looked up)
Lactotransferrin: APRKNVRWCTISQPEWFKCRRWQWRMKKLGAPSITCVRRAFALECIRAIAEKKADAVTLDGGMVFEAGRDPYKLRPVAAEIYGTKESPQTHYYAVAVVKKGSNFQLDQLQGRKSCHTGLGRSAGWIIPMGILRPYLSWTESLEPLQGAVAKFFSASCVPCIDRQAYPNLCQLCKGEGENQCACSSREPYFGYSGAFKCLQDGAGDVAFVKETTVFENLPEKADRDQYELLCLNNSRAPVDAFKECHLAQVPSHAVVARSVDGKEDLIWKLLSKAQEKFGKNKSRSFQLFGSPPGQRDLLFKDSALGFLRIPSKVDSALYLGSRYLTTLKNLRETAEEVKARYTRVVWCAVGPEEQKKCQQWSQQSGQNVTCATASTTDDCIVLVLKGEADALNLDGGYIYTAGKCGLVPVLAENRKSSKHSSLDCVLRPTEGYLAVAVVKKANEGLTWNSLKDKKSCHTAVDRTAGWNIPMGLIVNQTGSCAFDEFFSQSCAPGADPKSRLCALCAGDDQGLDKCVPNSKEKYYGYTGAFRCLAEDVGDVAFVKNDTVWENTNGESTADWAKNLNREDFRLLCLDGTRKPVTEAQSCHLAVAPNHAVVSRSDRAAHVKQVLLHQQALFGKNGKNCPDKFCLFKSETKNLLFNDNTECLAKLGGRPTYEEYLGTEYVTAIANLKKCSTSPLLEACAFLTR
modifications: 100% ferric iron saturated
notes: 100% ferric ion saturated lactoferrin
In the case of B1, the “mortality within 24 hours” value is reported as “died within 24 hours”.
